Literature values, collected in PMC4554539.

What was measured:
[1] = biological target: IL18 receptor (Homo sapiens) (UniProt Q13478); assay: binding to transfected COS-1 cells
[2] = biological target: IL18 receptor (Homo sapiens) (UniProt Q13478); assay: binding to L428 cells

Chain of IL18 receptor (Homo sapiens) (Q13478 19-541): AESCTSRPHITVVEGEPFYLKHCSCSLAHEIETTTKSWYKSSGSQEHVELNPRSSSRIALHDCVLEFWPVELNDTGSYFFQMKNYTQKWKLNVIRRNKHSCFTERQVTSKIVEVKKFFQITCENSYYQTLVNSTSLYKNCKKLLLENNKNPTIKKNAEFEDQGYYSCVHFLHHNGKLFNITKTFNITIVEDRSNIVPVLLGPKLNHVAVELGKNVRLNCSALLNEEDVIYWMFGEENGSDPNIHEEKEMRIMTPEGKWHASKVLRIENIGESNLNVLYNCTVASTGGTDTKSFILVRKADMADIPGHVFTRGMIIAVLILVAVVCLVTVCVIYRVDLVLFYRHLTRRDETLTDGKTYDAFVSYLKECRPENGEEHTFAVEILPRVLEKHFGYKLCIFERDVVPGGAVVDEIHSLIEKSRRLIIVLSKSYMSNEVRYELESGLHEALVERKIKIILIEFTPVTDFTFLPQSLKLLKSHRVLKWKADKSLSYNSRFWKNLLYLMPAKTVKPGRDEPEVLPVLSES
Chain of IL18 (Q14116 37-193): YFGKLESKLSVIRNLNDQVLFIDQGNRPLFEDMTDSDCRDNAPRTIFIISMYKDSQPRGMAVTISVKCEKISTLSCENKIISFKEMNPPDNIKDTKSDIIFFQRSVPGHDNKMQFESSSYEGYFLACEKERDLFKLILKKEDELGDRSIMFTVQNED

For IL18 (from UniProt Q14116), the Kd [1] is listed as 46 nM and the Kd [2] is listed as 18.5 nM.
